From publication PMC11065761
Like-named read-outs stand apart in the source and are kept apart here.

Assays:
Assay in all cases: SPR
[1] = target: C3b
[2] = target: C3b; remark: listed apart in the source
[3] = target: C4b biotinylated at the free sulfhydryl group of the thioester moiety
[4] = target: C3d (UniProt P01024)
[5] = target: C4b (amine coupled)

C3d, sequence (P01024 1002-1303): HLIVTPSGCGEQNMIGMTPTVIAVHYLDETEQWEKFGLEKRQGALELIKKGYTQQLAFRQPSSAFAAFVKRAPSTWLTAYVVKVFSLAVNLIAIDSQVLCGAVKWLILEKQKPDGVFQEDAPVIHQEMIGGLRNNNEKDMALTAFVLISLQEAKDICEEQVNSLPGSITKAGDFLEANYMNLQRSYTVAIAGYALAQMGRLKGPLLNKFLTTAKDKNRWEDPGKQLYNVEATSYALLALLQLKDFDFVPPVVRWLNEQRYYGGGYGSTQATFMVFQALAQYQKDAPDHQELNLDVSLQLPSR
Full-length factor H (FH), sequence (P08603 19-1231): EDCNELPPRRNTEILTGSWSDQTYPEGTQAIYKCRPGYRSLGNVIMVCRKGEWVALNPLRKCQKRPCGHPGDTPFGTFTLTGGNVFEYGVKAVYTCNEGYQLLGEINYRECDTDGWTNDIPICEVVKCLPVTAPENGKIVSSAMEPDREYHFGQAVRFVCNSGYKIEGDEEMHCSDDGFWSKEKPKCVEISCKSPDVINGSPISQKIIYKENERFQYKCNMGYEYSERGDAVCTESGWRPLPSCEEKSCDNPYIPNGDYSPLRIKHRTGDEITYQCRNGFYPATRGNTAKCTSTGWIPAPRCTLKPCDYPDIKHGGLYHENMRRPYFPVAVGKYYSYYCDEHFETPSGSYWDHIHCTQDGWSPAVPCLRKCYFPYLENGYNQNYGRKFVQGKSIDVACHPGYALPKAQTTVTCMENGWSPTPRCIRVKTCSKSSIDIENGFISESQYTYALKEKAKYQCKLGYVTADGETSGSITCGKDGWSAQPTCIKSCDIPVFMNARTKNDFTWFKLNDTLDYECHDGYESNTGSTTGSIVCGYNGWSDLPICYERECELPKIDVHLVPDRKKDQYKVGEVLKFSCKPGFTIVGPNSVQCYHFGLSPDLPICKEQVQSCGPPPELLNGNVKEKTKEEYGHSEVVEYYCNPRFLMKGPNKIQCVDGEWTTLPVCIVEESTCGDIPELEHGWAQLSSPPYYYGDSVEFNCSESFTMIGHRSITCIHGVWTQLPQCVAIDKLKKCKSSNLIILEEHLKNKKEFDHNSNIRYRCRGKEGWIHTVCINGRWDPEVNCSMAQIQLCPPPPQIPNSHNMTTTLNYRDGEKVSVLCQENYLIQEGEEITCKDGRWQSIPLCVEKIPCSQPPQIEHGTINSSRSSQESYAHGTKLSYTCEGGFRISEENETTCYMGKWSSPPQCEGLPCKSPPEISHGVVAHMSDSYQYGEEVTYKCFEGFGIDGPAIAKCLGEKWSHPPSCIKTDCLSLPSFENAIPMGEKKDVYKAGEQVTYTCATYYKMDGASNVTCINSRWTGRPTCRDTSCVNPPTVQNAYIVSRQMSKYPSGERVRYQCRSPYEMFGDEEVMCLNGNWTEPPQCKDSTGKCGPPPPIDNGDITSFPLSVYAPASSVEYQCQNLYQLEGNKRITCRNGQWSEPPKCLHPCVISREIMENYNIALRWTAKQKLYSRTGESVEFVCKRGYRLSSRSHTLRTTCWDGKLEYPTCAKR

Row | Kd [1] [nM] | Kd [2] [nM] | Kd [3] [nM] | Kd [4] [nM] | Kd [5] [nM] | Substance
1 | 25 |  |  |  |  | TriFu_13G (triple fusion complement inhibitor, 13 glycine residues between DAF and FH)
2 |  | 4700 |  |  |  | FH(19–20), the two C-terminal CCP domains of factor H (domain or fragment)
3 |  | 11000 | 17600 |  |  | DAF(1–4), the first four CCP domains of decay accelerating factor (domain or fragment)
4 |  | 125 |  |  |  | DAF(1–4)FH(19–20)-SL (short linker, "GPGG")
5 | 59 | 50 | 643 | 22000 | 865 | TriFu_6G (triple fusion complement inhibitor, 6 glycine residues between DAF and FH)
6 | 802 |  |  |  |  | Full-length factor H (FH) (from UniProt P08603 19-1231) (natural protein)
7 |  | 900 | 7800 |  |  | CR1(15–17), the middle CCP domains 15 to 17 of complement receptor 1 (domain or fragment)
8 |  | 175 |  |  |  | DAF(1–4)FH(19–20)-LL (long linker, polyglycine linker of 13 residues)
